Values quoted from earlier work in publication PMC3317066.

What was measured:
[1] = target: falcipain-2 (Plasmodium falciparum) (UniProt Q8I6U4)
[2] = target: falcipain-3 (Plasmodium falciparum) (UniProt Q8IIL0)
[3] = target: hemoglobin (Homo sapiens) (UniProt P69905)
[4] = target: methemoglobin (Homo sapiens) (UniProt P69905)

Sequence of UniProt Q8IIL0 (Q8IIL0 243-492): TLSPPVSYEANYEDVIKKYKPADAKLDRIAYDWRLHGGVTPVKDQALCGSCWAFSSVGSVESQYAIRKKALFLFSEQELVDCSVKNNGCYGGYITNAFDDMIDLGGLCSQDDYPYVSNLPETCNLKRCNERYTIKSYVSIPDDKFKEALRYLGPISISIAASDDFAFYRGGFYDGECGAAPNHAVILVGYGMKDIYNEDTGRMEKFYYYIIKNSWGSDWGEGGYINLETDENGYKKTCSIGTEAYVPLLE

Substance | Ki [1] | Ki [2] | Kd [3] | Kd [4]
cystatin (from UniProt P01038) | 6.5 nM | 100 nM | – | –
falcipain-2 (from UniProt Q8I6U4) | – | – | 3300 nM | 800 nM
